Our source for the protein stability index values is the supplement of paper PMC10567573.

± gives the standard deviation.

This data set is described as follows: protein stability index of a GFP-peptide fusion (GPS, HEK-293T) (PSI 1-6); higher = more stable. The following applies: c terminus: a fixed tail appended.
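Further: 24-mer peptide tiles fused after GFP, lentivirally expressed, FACS-sorted into six equal bins by GFP/DsRed ratio, decoded by Illumina sequencing, PSI is the read-weighted mean bin number.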

As for RQKREAAARKKYNLLQDSSTSDSD [C18orf25], the protein stability index amounted to 5.17 ± 0.25 (treatment: DMSO) and 5.18 ± 0.15 (treatment: MLN4924 1 uM, 8 h).
The corresponding values for PASGEVEASQLRRLNIKKDDEFFH [TMEM40] are 4.79 ± 0.1 and 4.78 ± 0.25.
As for KHIPYREHKSLTGTARYMSINTHL [CSNK1G3], the protein stability index turned out to be 2.41 ± 0.088 (treatment: DMSO) and 2.51 ± 0.32 (treatment: MLN4924 1 uM, 8 h).
The corresponding values for GGGGTQRLPRAIGMSLAKELIFSA [AUH] are 2.54 ± 0.21 and 2.69 ± 0.58.
The corresponding values for GDFDFDEVKFPNASDMFRRLRDAG [MYORG] are 3.98 ± 0.16 and 3.98 ± 0.2.
For ELKTKLTKLEAEIVTLRHVLAAKE [TPD52L3], in that order: 3.44 ± 0.27 and 3.64 ± 0.23.
On to RSRSLDIQPSSEGLGPTSEPFPSS [SPAG8], for which the protein stability index reads like this: (treatment: DMSO) 5.46 ± 0.23; (treatment: MLN4924 1 uM, 8 h) 5.52 ± 0.094.
The corresponding values for AESHASKDVAIDMMDSRTSQQLQL [STX5] are 4.98 ± 0.11 and 4.89 ± 0.18.
For PNNSCYSAGIAKLEEGDELQLAIP [TNFSF13B], in that order: 4.55 ± 0.12 and 4.59 ± 0.29.
The corresponding values for SEEAAVLQYASLVGQKCSERMLLF [ATE1] are 2.37 ± 0.4 and 2.19 ± 0.34.
In the case of IRDFEARKCPVHGKTMELFCQTDQ [TRIM29], the protein stability index was found to be 3.54 ± 0.28 (treatment: DMSO) and 3.76 ± 0.28 (treatment: MLN4924 1 uM, 8 h).
For MSSASGLRRGHPAGGEENMTETDA [CASP6], in that order: 5.3 ± 0.33 and 5.39 ± 0.16.
In the case of CPKYKFISCPTCRRETVLFTDYGL [RNF208], the protein stability index reads like this: (treatment: DMSO) 2.28 ± 0.25; (treatment: MLN4924 1 uM, 8 h) 2.25 ± 0.21.
The corresponding values for ALAIKVNLCGHWYYSKACCRSCRP [ADAMTSL2] are 2.43 ± 0.38 and 2.77 ± 0.62.
In the case of IRIKLDPCHPTVKNWRNFASKWGM [EDARADD], the protein stability index is, setting by setting: (treatment: DMSO) 3.28 ± 0.61; (treatment: MLN4924 1 uM, 8 h) 2.58 ± 0.76.
For GVSRGVGFIRFDKRIEAEEAIKGL [ELAVL3], in that order: 3.572 ± 0.035 and 4.05 ± 0.57.
For TRHVFTCGRRGIKVWSLTGQVAED [TLE6], the protein stability index is, setting by setting: (treatment: DMSO) 2.62 ± 0.14; (treatment: MLN4924 1 uM, 8 h) 2.68 ± 0.25.
For EALGLEAEGAVPETQTLTGWSKGF [RHOBTB1], in that order: 3.79 ± 0.098 and 4.05 ± 0.27.
Take TGRFSFTLPYPVKIKVRFSFFLQI [HACD3]: the protein stability index was 3.14 ± 0.37 (treatment: DMSO) and 2.92 ± 0.17 (treatment: MLN4924 1 uM, 8 h).
Take LTLAQGAGEEDPSGMVTIITGLPL [SMG5]: the protein stability index was found to be 2.98 ± 0.43 (treatment: DMSO) and 2.76 ± 0.44 (treatment: MLN4924 1 uM, 8 h).
With LMAEGLLPAVKVFLDWLRTNPDLI [SMG5], the protein stability index (treatment: DMSO) is 2.57 ± 0.38 and the protein stability index (treatment: MLN4924 1 uM, 8 h) is 2.6 ± 0.56.
The corresponding values for VYFKRFYARYSLKSIDPVLMAPTC [CCNC] are 3.11 ± 1.3 and 2.13 ± 0.32.
Turning to ALKDNKSPLHLVQMPPVIVETARS [PI4K2A], the protein stability index (treatment: DMSO) amounted to 3.8 ± 0.29 and the protein stability index (treatment: MLN4924 1 uM, 8 h) was found to be 3.82 ± 0.29.
Take NISGHTNTNTLKVPECRLAEDLGN [SPOPL]: the protein stability index reads like this: (treatment: DMSO) 3.53 ± 0.26; (treatment: MLN4924 1 uM, 8 h) 3.7 ± 0.19.
With LDCADALLKAGADVNKTDHSQRTA [INVS], the protein stability index was 5.09 ± 0.38 (treatment: DMSO) and 5.13 ± 0.43 (treatment: MLN4924 1 uM, 8 h).
The corresponding values for IEDFQQKILLTKSENARLVLQIDN [KRT36] are 2.79 ± 0.25 and 2.8 ± 0.23.
As to YNILKTCRGHTLERSVFSERTEES [CARM1], the protein stability index came to 2.56 ± 0.5 (treatment: DMSO) and 2.56 ± 0.6 (treatment: MLN4924 1 uM, 8 h).
For EERVRVLQGVRLSENVVNRMKEPS [CHCHD6], in that order: 4.6 ± 0.51 and 4.64 ± 0.19.
For the sequence SYVHILSAILQFPSTLGRCKAFST [OR10K2], the protein stability index worked out at 3.38 ± 0.61 (treatment: DMSO) and 3.01 ± 0.63 (treatment: MLN4924 1 uM, 8 h).
The corresponding values for KLYGQRERVWALAQEKAADVQARL [FCHSD1] are 3.51 ± 0.32 and 3.49 ± 0.3.
In turn, RGLIPVKRGPSSRSGGPPPKKSAP [RBMY1A1] had a protein stability index (treatment: DMSO) of 4.3 ± 0.58 and a protein stability index (treatment: MLN4924 1 uM, 8 h) of 4.73 ± 0.28.
For WQDSDTVKLLVDLELSYGFENGQK [TOR1AIP2], in that order: 2.7 ± 0.37 and 2.65 ± 0.49.
For EQCLPSLENSKYCRFNQDPEAVDE [ATE1], in that order: 5.16 ± 0.45 and 5.16 ± 0.26.
In the case of QGGKDFNVPLSISRLTPGGKAAQA [PDLIM7], the protein stability index by setting is: (treatment: DMSO) 4.23 ± 0.26; (treatment: MLN4924 1 uM, 8 h) 4.35 ± 0.15.
For KVRSLETENSALQLQVTEREEVRG [LMNB1], in that order: 5.22 ± 0.35 and 5.53 ± 0.15.
The corresponding values for EALVRTVLRAGDREDITEPAICAL [CTNNB1] are 3.45 ± 0.29 and 3.6 ± 0.51.
